Data from patent US20050272077.
Positions count from the first letter of the chain named.

T1: GST-ATF2 fusion protein (residues 1-505), P15336
T1 chain: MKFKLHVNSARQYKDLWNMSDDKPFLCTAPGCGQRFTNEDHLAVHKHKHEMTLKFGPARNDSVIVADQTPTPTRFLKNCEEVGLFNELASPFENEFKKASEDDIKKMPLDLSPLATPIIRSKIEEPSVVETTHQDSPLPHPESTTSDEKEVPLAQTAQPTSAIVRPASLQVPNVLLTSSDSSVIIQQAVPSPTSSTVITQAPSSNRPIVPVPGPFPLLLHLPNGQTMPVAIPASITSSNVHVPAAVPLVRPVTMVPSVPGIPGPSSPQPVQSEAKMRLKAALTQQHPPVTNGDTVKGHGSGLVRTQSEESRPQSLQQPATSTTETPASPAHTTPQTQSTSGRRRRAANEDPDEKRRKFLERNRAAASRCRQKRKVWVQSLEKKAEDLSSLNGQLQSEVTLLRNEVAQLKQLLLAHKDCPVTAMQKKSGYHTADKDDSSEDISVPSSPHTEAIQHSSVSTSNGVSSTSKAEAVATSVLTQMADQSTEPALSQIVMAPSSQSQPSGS

T2: mutated ATF2 (Ala^69.71), P15336
T2 chain: T1 chain with T69A, T71A

B1: JNK1 from UV-irradiated cells (protein)
chain: MSRSKRDNNFYSVEIGDSTFTVLKRYQNLKPIGSGAQGIVCAAYDAILERNVAIKKLSRPFQNQTHAKRAYRELVLMKCVNHKNIIGLLNVFTPQKSLEEFQDVYIVMELMDANLCQVIQMELDHERMSYLLYQMLCGIKHLHSAGIIHRDLKPSNIVVKSDCTLKILDFGLARTAGTSFMMTPYVVTRYYRAPEVILGMGYKENVDLWSVGCIMGEMVCHKILFPGRDYIDQWNKVIEQLGTPCPEFMKKLQPTVRTYVENRPKYAGYSFEKLFPDVLFPADSEHNKLKASQARDLLSKMLVIDASKRISVDEALQHPYINVWYDPSEAEAPPPKIPDKQLDEREHTIEEWKELIYKEVMDLEERTKNGVIRGQPSPLAQVQQ
B2: GST-MKK3 (protein)
chain: MSKPPAPNPTPPRNLDSRTFITIGDRMFEVEADDLVTISELGRGAYGVVEKVRHAQSGTIMAVKRIRATVNSQEQKRLLMDLDINMRTVDCFYTVTFYGALFREGDVWICMELMDTSLDKFYRKVLDKNMTIPEDILGEIAVSIVRALEHLHSKLSVIHRDVKPSNVLINKEGHVKMCDFGISGYLVDSVAKTMDAGCKPYMAPERINPELNQKGYNVKSDVWSLGITMIEMAILRFPYESWGTPFQQLKQVVEEPSPQLPADRFSPEFVDFTAQCLRKNPAERMSYLELMEHPFFTLHKTKKTDIAAFVKKILGEDS

How the values were obtained:
[1] = target: T1, GST-ATF2 fusion protein (residues …)
[2] = target: T2, mutated ATF2 (Ala^69.71), P15336
[3] = target: GST-p38 MAP kinase (wild-type, TGY), Q16539
[4] = target: GST-JNK1, P45983
[5] = target: mutated GST-p38 MAP kinase (AGF), Q16539
[6] = target: GST-ERK2 [GST: P08515]
Sequence of GST-ERK2 [GST: P08515] (P08515 whole entry, looked up): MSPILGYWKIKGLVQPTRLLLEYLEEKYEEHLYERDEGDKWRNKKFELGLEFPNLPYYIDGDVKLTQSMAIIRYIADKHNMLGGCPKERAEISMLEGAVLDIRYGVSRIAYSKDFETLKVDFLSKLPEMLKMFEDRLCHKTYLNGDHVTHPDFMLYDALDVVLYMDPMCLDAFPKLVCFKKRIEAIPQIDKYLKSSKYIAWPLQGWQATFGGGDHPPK

Sequence of GST-p38 MAP kinase (wild-type, TGY), Q16539 (Q16539 whole entry): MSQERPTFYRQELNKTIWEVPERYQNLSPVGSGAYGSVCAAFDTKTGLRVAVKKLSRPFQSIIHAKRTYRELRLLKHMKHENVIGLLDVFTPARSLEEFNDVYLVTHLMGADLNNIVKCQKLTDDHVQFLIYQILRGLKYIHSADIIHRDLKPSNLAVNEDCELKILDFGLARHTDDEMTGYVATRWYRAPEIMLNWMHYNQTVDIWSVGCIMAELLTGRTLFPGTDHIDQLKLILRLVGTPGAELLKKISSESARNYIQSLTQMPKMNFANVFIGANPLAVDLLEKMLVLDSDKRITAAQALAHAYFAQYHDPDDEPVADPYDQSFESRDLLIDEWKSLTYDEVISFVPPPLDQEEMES
Sequence of mutated GST-p38 MAP kinase (AGF), Q16539 (Q16539 whole entry, looked up, change not shown): as the sequence (Q16539 whole entry) above

Row | Protein | in-gel protein kinase assay with GST-ATF2 (residues 1-505) polymerized in the gel [1] | phosphorylation of ATF2 by JNK1 (phosphopeptide mapping and mutational analysis) [2] | phosphorylation of the substrate protein (in vitro kinase assay, SDS-PAGE, autoradiography) [3] | phosphorylation of the substrate protein (in vitro kinase assay, [γ-32P]ATP, SDS-PAGE, autoradiography) [3] | phosphorylation of the substrate protein (in vitro kinase assay, [γ-32P]ATP, SDS-PAGE, autoradiography) [4] | phosphorylation of the substrate protein (in vitro kinase assay, SDS-PAGE, autoradiography) [5] | phosphorylation of the substrate protein (in vitro kinase assay, [γ-32P]ATP, SDS-PAGE, autoradiography) [6]
1 | B1 | 46 kD and 55 kD protein kinases that phosphorylate ATF2 in extracts prepared from UV-irradiated cells. The 46 kD and 55 kD protein kinases were identified as JNK1 and JNK2, respectively | Phosphorylation of mutated ATF2 was not observed | – | – | – | – | –
2 | B2 | – | – | Only phosphorylation of wild-type p38 was observed | MKK3 phosphorylated p38 MAP kinase, but not JNK1 or ERK2 | MKK3 phosphorylated p38 MAP kinase, but not JNK1 or ERK2 | Only phosphorylation of wild-type p38 was observed | MKK3 phosphorylated p38 MAP kinase, but not JNK1 or ERK2
